Patent US20220112547, “BIOCHEMICAL REACTION METHODS AND REAGENTS COMPRISING INTRINSICALLY DISORDERED REGIONS” (Biocrucible Limited, published 2022)

Legend:
[1] = molecular target: T1, Gp32-HRP1 (phage vB_EcoM_NBG1); assay: oligo enriched in phase-separated particles; MgOAc, RPA mix, no crowding agent; settings: tags: C-terminal HRP1 IDR (S. cerevisiae Hrp1) and 7xHis; label: FAM
T1 chain: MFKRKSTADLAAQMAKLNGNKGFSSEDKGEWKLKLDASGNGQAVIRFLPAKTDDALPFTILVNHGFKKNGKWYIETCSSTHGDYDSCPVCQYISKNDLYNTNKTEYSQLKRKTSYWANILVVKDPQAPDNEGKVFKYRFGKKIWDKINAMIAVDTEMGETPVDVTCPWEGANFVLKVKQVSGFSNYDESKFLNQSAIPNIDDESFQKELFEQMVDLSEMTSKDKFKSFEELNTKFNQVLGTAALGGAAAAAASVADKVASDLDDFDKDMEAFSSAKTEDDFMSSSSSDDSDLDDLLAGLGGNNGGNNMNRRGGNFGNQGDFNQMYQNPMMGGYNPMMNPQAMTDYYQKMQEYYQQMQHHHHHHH
Protocol: (§1) Reactions were set up according to the following protocol. A reaction mixture was created with the following components: 25 mM Tris HCl pH 8.3, 7.5 mM KOAc, 1 mM DTT, 2.5 mM ATP, 20 mM phosphocreatine, 1 μM creatine kinase, 1 mM dNTPs, 0.2 μM forward primer, 0.2 μM reverse primer, 0.516 μM probe, 22.6 μM Gp32-HRP fusion, 8.4 μM UvsX, 15.3 μM UvsY, 0.135 μM S. aureus DNA polymerase (large subunit), and 0.27 μM Exonuclease III. Gp32, UvsX, UvsY, polymerase and Exonuclease III were prepared as a premix before being added in one step to the mixture of primer, buffer, nucleotides and creatine kinase. The total volume was 44 Once combined, 6 μl of 280 mM MgOAc was added to the mixture to achieve a final concentration of 33 mM. 10 μl of the reaction mix was then transferred to a C-Chip haemocytometer slide which was placed on a heated stage set to 39° C. before being observed under the microscope where images were taken under bright field light conditions and fluorescence conditions.

[2] = molecular target: T2, Gp32-HIS2 (phage vB_EcoM_NBG1); assay: as above; settings: tags: C-terminal HIS2 IDR (human OTX1); label: FAM
T2 chain: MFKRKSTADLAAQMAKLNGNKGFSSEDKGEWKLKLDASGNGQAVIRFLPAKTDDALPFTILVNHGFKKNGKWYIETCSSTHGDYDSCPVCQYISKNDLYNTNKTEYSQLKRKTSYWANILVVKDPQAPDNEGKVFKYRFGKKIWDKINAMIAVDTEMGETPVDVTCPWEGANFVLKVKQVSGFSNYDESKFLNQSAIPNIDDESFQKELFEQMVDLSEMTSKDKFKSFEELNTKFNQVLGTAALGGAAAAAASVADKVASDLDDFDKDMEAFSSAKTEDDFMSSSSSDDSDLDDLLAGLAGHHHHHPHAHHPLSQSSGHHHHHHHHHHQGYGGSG
Protocol: as §1, with “Gp32-HIS2” for “Gp32-HRP”, “Gp32-His2,” for “Gp32,”

B1: FAM oligo probe (ssDNA)
DNA: CCGCAATGGTGCACTCTCAGTACAATCTGCTCTGATG
binding result [1]: binds
binding result [2]: binds
